{"source": "paper PMC6602975", "about": "“Structure and function of the Orc1 BAH-nucleosome complex” (Nature Communications, 2019)", "binders": {"B1": {"name": "Orc1 BAH L79I mutant (domain or fragment)", "chain": "MAKTLKDLQGWEIITTDEQGNIIDGGQKRLRRRGAKTEHYLKRSSDGIKLGRGDSVVMHNEAAGTYSVYMIQELRLNTINNVVELWALTYLRWFEVNPLAHYRQFNPDANILNRPLNYYNKLFSETANKNELYLTAELAELQLFNFIRVANVMDGSKWEVLKGNVDPERDFTVRYICEPTGEKFVDINIEDVKAYIKKVEPREAQEYLKDLTLP", "modifications": "N-alpha-acetyl on A2 (acetylated N-terminus visible in the structure)", "notes": "Orc1 BAH domain, S. cerevisiae, amino acids 1-214, L79I; Used for the crystal structure and in EMSA; source: SF9 insect cells (baculovirus), purified (Ni-NTA, SP-Sepharose FF, Superdex-200)"}}, "key": {"[1]": {"biological_target": "Histone H2B (X. laevis), in the nucleosome core particle (X. laevis, UniProt P02281 1-126)", "assay": "crystal structure; Orc1 BAH L79I mixed with nucleosome 3:1, complex purified by gel filtration; sitting drop at 4 °C, 6 mM Na-cacodylate pH 6.0, 0.4 mM spermine-HCl, 2 mM MgCl2, 1.75% PEG 400; 3.3 Å", "conditions": "both partners purified"}, "[2]": {"biological_target": "T1, Histone H4 (X. laevis), in the nucleosome core particle (X. laevis, UniProt P62799 1-103)", "T1 construct": "histone H4, X. laevis; Stood in the crystal as part of the nucleosome m12; source: bacterial expression vector", "assay": "crystal structure; Orc1 BAH L79I mixed with nucleosome 3:1, complex purified by gel filtration; sitting drop at 4 °C, 6 mM Na-cacodylate pH 6.0, 0.4 mM spermine-HCl, 2 mM MgCl2, 1.75% PEG 400; 3.3 Å", "conditions": "both partners purified"}}}
{"binder": "B1", "values": [{"measurement": "binding result", "setting": "[1]", "result": "binds"}, {"measurement": "binding result", "setting": "[2]", "result": "binds"}]}
